Experimental data: article PMC2829124

Substrate: CCCCCCCCCCCCCC(=O)SCCNC(=O)CCNC(=O)[C@H](O)C(C)(C)COP(=O)(O)OP(=O)(O)OC[C@H]1O[C@@H](n2cnc3c(N)ncnc32)[C@H](O)[C@@H]1OP(=O)(O)O
Assay: purified protein
Settings: fatty acyl-CoA binding site

B1: N-Myristoyltransferase (LdNMT) (Leishmania donovani) (protein)
chain: MSRNPSNSDAAHAFWSTQPVPQTEDETEKIVFAGPMDEPKTVADIPEEPYPIASTFEWWTPNMEAADDIHAIYELLRDNYVEDDDSMFRFNYSEEFLQWALCPPSYIPDWHVAVRRKADKKLLAFIAGVPVTLRMGTPKYMKVKAQEKGQEEEAAKYDAPRHICEINFLCVHKQLREKRLAPILIKEVTRRVNRTNVWQAVYTAGVLLPTPYASGQYFHRSLNPEKLVEIRFSGIPAQYQKFQNPMAMLKRNYQLPNAPKNSGLREMKPSDVPQVRRILMNYLDNFDVGPVFSDAEISHYLLPRDGVVFTYVVENDKKVTDFFSFYRIPSTVIGNSNYNILNAAYVHYYAATSMPLHQLILDLLIVAHSRGFDVCNMVEILDNRSFVEQLKFGAGDGHLRYYFYNWAYPKIKPSQVALVML
Q: B1 was tested. Which Km did it give?
A: The Km was 0.0175 ± 0.0029 µM.
